This is an account of results in patent US20170056486A1.

Test [1] deals with HLA-A*24 (human). As to the kind of experiment: UV-exchange ELISA (anti-b2m); yield 20%-49%. Background: In an ELISA, binding on a coated surface is turned into a signal by an enzyme label.
Test [2] concerns the target HLA-A*24 (human). In words: UV-exchange ELISA (anti-b2m); yield <20%.

KYLSVQLTL registered a peptide exchange yield in test [1] of 20 to 49%.
Same read-out and setting: the result for IFITKALQI reads 20 to 49%; that for KYPDIASPTF, 20 to 49%; that for VFLPRVTEL, 20 to 49%.
Same read-out and setting: as for SFLNIEKTEILF, the figure is 20 to 49%; as for VYPDTVALTF, 20 to 49%; as for SYAPPSEDLFL, 20 to 49%.
The same measure, in the same setting: as for YFIKSPPSQLF, the figure is 20 to 49%; as for KYYRQTLLF, 20 to 49%; as for SYAELGTTI, 20 to 49%.
Molecule VYNYAEQTL returned a peptide exchange yield in test [1] of 20 to 49%.
Same read-out and setting: as for AYSHLRYVF, the figure is 20 to 49%; as for SYVASFFLL, 20 to 49%.
The molecule TYKDYVDLF came in with a peptide exchange yield in test [2] of less than 20%.
For the molecule LYQDHMQYI, the peptide exchange yield in test [1] was 20 to 49%.
Same read-out and setting: the result for MYLKLVQLF reads 20 to 49%.
